In article PMC3159463:
Like-named read-outs stand apart in the source and are kept apart here.

Columns and labels:
[1] = target: pED208 TraM (plasmid pED208 (transfer-derepressed derivative of the Folac plasmid originally isolated from Salmonella typhi)) (UniProt P33788); experiment: crystal structure
pED208 TraM = target: T1, pED208 TraM (plasmid pED208 (IncFV, derivative of …, UniProt P33788 1-127)); experiment: EMSA
T1 sequence: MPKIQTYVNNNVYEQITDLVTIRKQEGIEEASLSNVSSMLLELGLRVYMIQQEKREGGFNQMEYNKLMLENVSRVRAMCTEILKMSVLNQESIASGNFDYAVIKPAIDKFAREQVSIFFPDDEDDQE

[2] = target: T2, pED208 TraM N-terminal domain (plasmid pED208, UniProt P33788 2-52); experiment: EMSA
T2 sequence: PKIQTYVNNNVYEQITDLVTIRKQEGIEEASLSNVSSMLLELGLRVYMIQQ

F TraM [3] = target: T3, F TraM (F plasmid, UniProt P10026 1-127); experiment: SEC-MALLS
T3 sequence: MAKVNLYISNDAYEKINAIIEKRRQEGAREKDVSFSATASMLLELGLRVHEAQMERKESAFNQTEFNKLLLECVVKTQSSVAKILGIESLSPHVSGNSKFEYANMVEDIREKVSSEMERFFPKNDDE

[4] = target: T4, TraM[F1-55:pED208 56-127] chimera (F plasmid / plasmid pED208 chimera, UniProt P10026 1-55+P33788:56-127, internal_change); experiment: EMSA
T4 sequence: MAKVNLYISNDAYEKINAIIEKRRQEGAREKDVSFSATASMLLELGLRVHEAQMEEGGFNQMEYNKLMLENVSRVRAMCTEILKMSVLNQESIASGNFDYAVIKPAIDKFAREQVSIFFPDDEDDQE

F TraM [5] = target: T3, F TraM; experiment: SEC-MALLS; remark: listed apart in the source

pED208 TraM (from UniProt P33788 1-127) (natural protein)
stoichiometry N [1]: 4

B1: pED208 sbmA 24 bp (pED 4site, palindromic) (dsDNA)
DNA 1: AGATTCGAATCTAGATTCGAATCT
DNA 2: AGATTCGAATCTAGATTCGAATCT
Kd (pED208 TraM): 4.8 ± 0.7 nM
binding signal [2]: ~500 fold lower affinity than full-length

B2: F sbmAB 75 bp (dsDNA)
DNA 1: TTATATTAGGGGTGCTGCTAGCGGCGCGGTGTGTTTTTTTATAGGATACCGCTAGGGGCGCTGCTAGCGGTGCGT
DNA 2: ACGCACCGCTAGCAGCGCCCCTAGCGGTATCCTATAAAAAAACACACCGCGCCGCTAGCAGCACCCCTAATATAA
binding result (F TraM [3]): binds

B3: F sbmA 30 bp (dsDNA)
DNA 1: GATACCGCTAGGGGCGCTGCTAGCGGTGCG
DNA 2: CGCACCGCTAGCAGCGCCCCTAGCGGTATC
binding result [4]: binds
binding result (F TraM [5]): binds
